Numbering of substitutions follows the chain as printed.
T1: human EpCAM expressed on cells (CHO cells stably transfected with human EpCAM); EpCAM-positive human tumor … (human, UniProt P16422 24-314)
T1 sequence (looked up): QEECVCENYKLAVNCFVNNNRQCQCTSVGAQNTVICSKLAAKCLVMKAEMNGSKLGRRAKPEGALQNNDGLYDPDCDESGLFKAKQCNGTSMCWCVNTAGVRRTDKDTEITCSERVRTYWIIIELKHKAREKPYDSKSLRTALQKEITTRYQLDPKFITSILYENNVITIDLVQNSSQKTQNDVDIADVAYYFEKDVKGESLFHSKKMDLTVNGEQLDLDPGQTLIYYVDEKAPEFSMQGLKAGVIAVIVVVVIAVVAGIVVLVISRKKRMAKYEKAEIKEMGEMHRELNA

B1: AC1695 protease-untreated anti-EpCAM×anti-CD3 ProTIA (bispecific antibody)
chain: DIQMTQSPSSLSASVGDRVTITCRSTKSLLHSNGITYLYWYQQKPGKAPKLLIYQMSNLASGVPSRFSSSGSGTDFTLTISSLQPEDFATYYCAQNLEIPRTFGQGTKVEIKGATPPETGAETESPGETTGGSAESEPPGEGQVQLVQSGPGLVQPGGSVRISCAASGYTFTNYGMNWVKQAPGKGLEWMGWINTYTGESTYADSFKGRFTFSLDTSASAAYLQINSLRAEDTAVYYCARFAIKGDYWGQGTLLTVSSGGGGSDIQMTQSPSSLSASVGDRVTITCRASQDIRNYLNWYQQKPGKAPKLLIYYTSRLESGVPSRFSGSGSGTDYTLTISSLQPEDFATYYCQQGNTLPWTFGQGTKVEIKGATPPETGAETESPGETTGGSAESEPPGEGEVQLVESGGGLVQPGGSLRLSCAASGYSFTGYTMNWVRQAPGKGLEWVALINPYKGVSTYNQKFKDRFTISVDKSKNTAYLQMNSLRAEDTAVYYCARSGYYGDSDWYFDVWGQGTLVTVSSGTAEAASASGTTGRAGEAANLTPAGLTGPPGSPAGSPTSTEEGTSESATPESGPGTSTEPSEGSAPGSPAGSPTSTEEGTSTEPSEGSAPGTSTEPSEGSAPGTSESATPESGPGSEPATSGSETPGSEPATSGSETPGSPAGSPTSTEEGTSESATPESGPGTSTEPSEGSAPGTSTEPSEGSAPGSPAGSPTSTEEGTSTEPSEGSAPGTSTEPSEGSAPGTSESATPESGPGTSTEPSEGSAPGTSESATPESGPGSEPATSGSETPGTSTEPSEGSAPGTSTEPSEGSAPGTSESATPESGPGTSESATPESGPGSPAGSPTSTEEGTSESATPESGPGSEPATSGSETPGTSESATPESGPGTSTEPSEGSAPGTSTEPSEGSAPGTSTEPSEGSAPGTSTEPSEGSAPGTSTEPSEGSAPGTSTEPSEGSAPGSPAGSPTSTEEGTSTEPSEGSAPGTSESATPESGPGSEPATSGSETPGTSESATPESGPGSEPATSGSETPGTSESATPESGPGTSTEPSEGSAPGTSESATPESGPGSPAGSPTSTEEGSPAGSPTSTEEGSPAGSPTSTEEGTSESATPESGPGTSTEPSEGSAPGTSESATPESGPGSEPATSGSETPGTSESATPESGPGSEPATSGSETPGTSESATPESGPGTSTEPSEGSAPGSPAGSPTSTEEGTSESATPESGPGSEPATSGSETPGTSESATPESGPGSPAGSPTSTEEGSPAGSPTSTEEGTSTEPSEGSAPGTSESATPESGPGTSESATPESGPGTSESATPESGPGSEPATSGSETPGSEPATSGSETPGSPAGSPTSTEEGTSTEPSEGSAPGTSTEPSEGSAPGSEPATSGSETPGTSESATPESGPGTSTEPSEGSAPGHHHHHH
B2: AC1684 protease-untreated anti-EpCAM×anti-CD3 ProTIA (bispecific antibody)
chain: DIQMTQSPSSLSASVGDRVTITCRSTKSLLHSNGITYLYWYQQKPGKAPKLLIYQMSNLASGVPSRFSSSGSGTDFTLTISSLQPEDFATYYCAQNLEIPRTFGQGTKVEIKGATPPETGAETESPGETTGGSAESEPPGEGQVQLVQSGPGLVQPGGSVRISCAASGYTFTNYGMNWVKQAPGKGLEWMGWINTYTGESTYADSFKGRFTFSLDTSASAAYLQINSLRAEDTAVYYCARFAIKGDYWGQGTLLTVSSGGGGSDIQMTQSPSSLSASVGDRVTITCRASQDIRNYLNWYQQKPGKAPKLLIYYTSRLESGVPSRFSGSGSGTDYTLTISSLQPEDFATYYCQQGNTLPWTFGQGTKVEIKGATPPETGAETESPGETTGGSAESEPPGEGEVQLVESGGGLVQPGGSLRLSCAASGYSFTGYTMNWVRQAPGKGLEWVALINPYKGVSTYNQKFKDRFTISVDKSKNTAYLQMNSLRAEDTAVYYCARSGYYGDSDWYFDVWGQGTLVTVSSGTAEAASASGESGRAANTEPPELGAGPGSPAGSPTSTEEGTSESATPESGPGTSTEPSEGSAPGSPAGSPTSTEEGTSTEPSEGSAPGTSTEPSEGSAPGTSESATPESGPGSEPATSGSETPGSEPATSGSETPGSPAGSPTSTEEGTSESATPESGPGTSTEPSEGSAPGTSTEPSEGSAPGSPAGSPTSTEEGTSTEPSEGSAPGTSTEPSEGSAPGTSESATPESGPGTSTEPSEGSAPGTSESATPESGPGSEPATSGSETPGTSTEPSEGSAPGTSTEPSEGSAPGTSESATPESGPGTSESATPESGPGSPAGSPTSTEEGTSESATPESGPGSEPATSGSETPGTSESATPESGPGTSTEPSEGSAPGTSTEPSEGSAPGTSTEPSEGSAPGTSTEPSEGSAPGTSTEPSEGSAPGTSTEPSEGSAPGSPAGSPTSTEEGTSTEPSEGSAPGTSESATPESGPGSEPATSGSETPGTSESATPESGPGSEPATSGSETPGTSESATPESGPGTSTEPSEGSAPGTSESATPESGPGSPAGSPTSTEEGSPAGSPTSTEEGSPAGSPTSTEEGTSESATPESGPGTSTEPSEGSAPGTSESATPESGPGSEPATSGSETPGTSESATPESGPGSEPATSGSETPGTSESATPESGPGTSTEPSEGSAPGSPAGSPTSTEEGTSESATPESGPGSEPATSGSETPGTSESATPESGPGSPAGSPTSTEEGSPAGSPTSTEEGTSTEPSEGSAPGTSESATPESGPGTSESATPESGPGTSESATPESGPGSEPATSGSETPGSEPATSGSETPGSPAGSPTSTEEGTSTEPSEGSAPGTSTEPSEGSAPGSEPATSGSETPGTSESATPESGPGTSTEPSEGSAPGHHHHHH
B3: AC1715 protease-untreated anti-EpCAM×anti-CD3 ProTIA (bispecific antibody)
chain: B2 chain with E541T, P543A, E544G, G546T, A547G, G548P
B4: AC1714 protease-untreated anti-EpCAM×anti-CD3 ProTIA (bispecific antibody)
chain: B2 chain with S534A, A537S, T540H, E541T, P543A, E544G, G546T, A547G, G548P
B5: AC1685 protease-untreated anti-EpCAM×anti-CD3 ProTIA (bispecific antibody)
chain: B2 chain with E541A, P543E, E544G, G546T, A547G, G548P
B6: AC1686 protease-untreated anti-EpCAM×anti-CD3 ProTIA (bispecific antibody)
chain: B2 chain with S534P, T540H, P543S, E544G, G546T, A547E

Tests used:
[1] = target: recombinant human CD3 epsilon & delta (rhCD3ε & δ), Creative BioMart cat #CD3E&CD3D-219H (human) (UniProt P07766); assay: sandwich ELISA: rhCD3ε & δ coated, biotinylated anti-XTEN antibody detection
recombinant human CD3 epsilon & delta (rhCD3ε & δ), Creative BioMart cat #CD3E&CD3D-219H (human), sequence (P07766 23-126, stated change not applied, chain 1 of 2): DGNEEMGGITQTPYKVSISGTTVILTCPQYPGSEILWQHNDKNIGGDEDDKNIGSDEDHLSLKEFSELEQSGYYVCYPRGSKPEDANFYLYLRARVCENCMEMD
recombinant human CD3 epsilon & delta (rhCD3ε & δ), Creative BioMart cat #CD3E&CD3D-219H (human), sequence (P04234 22-105, stated change not applied, chain 2 of 2, further chain): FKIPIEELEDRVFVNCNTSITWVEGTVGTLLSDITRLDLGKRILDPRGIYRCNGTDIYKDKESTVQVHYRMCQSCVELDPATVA

[2] = target: T1, human EpCAM expressed on cells (CHO …); assay: cell-based or functional assay

Row | Binder | EC50 [1] | EC50 (pM), caspase 3/7 cytotoxicity, PBMC with HCT-116 cells 10:1 [2] | EC50 (pM), caspase 3/7 cytotoxicity, PBMC with HPAF-II cells 10:1 [2] | EC50 (pM), caspase 3/7 cytotoxicity, PBMC with MDA-MB-231 cells 10:1 [2]
1 | B1 | 0.028 µg/mL | 53 pM | 18 pM | 3750 pM
2 | B2 | 0.031 µg/mL | 32 pM | 24 pM | 12200 pM
3 | B3 | 0.034 µg/mL | 20 pM | 14 pM | 1190 pM
4 | B4 | 0.03 µg/mL | 52 pM | 20 pM | 1740 pM
5 | B5 | 0.029 µg/mL | 27 pM | 29 pM | 4340 pM
6 | B6 | 0.026 µg/mL | 240 pM | 118 pM | 2680 pM

From patent US12060424 (AMUNIX PHARMACEUTICALS, dated 2024)
